Read-outs that look alike come from different tables or passages of the source.
B1: brain-derived neurotrophic factor (protein, UniProt P23560 19-247, looked up)
Neurotrophic factor BDNF …: APMKEANIRGQGGLAYPGVRTHGTLESVNGPKAGSRGLTSLADTFEHVIEELLDEDQKVRPNEENNKDADLYTSRVMLSSQVPLEPPLLFLLEEYKNYLDAANMSMRVRRHSDPARRGELSVCDSISEWVTAADKKTAVDMSGGTVTVLEKVPVSKGQLKQYFYETKCNPMGYTKEGCRGIDKRHWNSQCRTTQSYVRALTMDSKKRIGWRFIRIDTSCVCTLTIKRGR
B2: monoclonal mouse anti-pS469 CNAα antibody: monoclonal mouse antibody with the heavy and light chain variable regions listed in the Sequence Table (antibody, V domains shown)
VH: EVQLQQSGAELVRPGASVKLSCTASDFNIKDTYIHWLKQRPEQGLEWIGRIDPANSNPKYDPNFQGKATITTDTSSNTAYLQLSSLTSDDTAVYYCTRRDYYGSGSWFAYWGQGTLVTVSS
VL: DIVMTQAAPSVPVTPGESVSISCRSSKSLLHSNGNTYLYWFLQRPGQSPQLLIYRMSNLASGVPDRFSGSGSGTAFTLRINRVEAEDVGVYYCMQHLEYPLTFGAGTKLELK

Legend:
[1] = tested on: phospho-S469 CNAα in rat hippocampal neurons; format: cell-based
[2] = molecular target: T1, phosphorylated CNAα (Mus musculus, UniProt P63328); assay: Lambda phosphatase de-phosphorylation specificity test on membrane; format: binding; details: cortical neuron (15DIV) lysates on PVDF membrane, with or without cLTP
T1 construct: protein lysates from cortical neurons (15DIV), either 5 min post-cLTP induction or no cLTP control; endogenous in cells; host or cells: primary cortical neurons (15DIV)
Experimental: To further test the specificity of the murine monoclonal antibody for phosphorylated CNAα, de-phosphorylation experiments were performed using lambda phosphatase on protein fixed in a membrane. Specifically, protein lysates from cortical neurons (15DIV), either 5 min post-cLTP induction or no cLTP control, were separated by SDS-PAGE and subsequently transferred to a PVDF membrane. One section of the membrane was incubated overnight at room temperature with lambda phosphatase (FIG. 13, top panel, right blot), while another section was incubated under the same conditions without phosphatase (FIG. 13, top panel, left blot). Following these incubations, the phosphatase-treated and control membrane sections were incubated with the antibody and antibody binding was detected by chemiluminescence. […] As a loading control, the level of total CNAα was also assessed in both membranes sections after the incubations with or without phosphatase (bottom panel of the figure).

[3] = tested on: CNAα recombinant protein; assay: Western blot of CNAα recombinant protein WT, S469E and S462E/S469E with monoclonal antibody; format: binding
Experimental: The validation of the specificity of the antibody for pS469 was additionally determined by Western blot using CNAα recombinant protein WT (unphosphorylated), the phosphomimic mutant S469E (see examples above) and a double mutant with substitutions of E for S at both positions 462 and 469 (S462E/S469E). […] Levels of total CNAα were used as a loading control and were assessed after stripping of the membranes and incubation with anti-CNAα rabbit by chemiluminescence (bottom panel).

[4] = listed as monoclonal murine anti-S469 CNAα phosphospecific antibody

| Molecule | levels of phospho-S469 CNAα within dendrites [1] | recognition of CNAα with or without lambda phosphatase treatment ([2]; listed as monoclonal antibody) | recognition of CNAα with or without lambda phosphatase treatment ([2]; listed as monoclonal murine anti-S469 phosphospecific antibody) | recognition of double mutant S462E/S469E [3] | recognition of recombinant protein S469E [3] | recognition of wild-type unphosphorylated CNAα recombinant protein [3] | recognition of double mutant S462E/S469E [3, 4] | recognition of recombinant protein S469E [3, 4] | recognition of wild-type unphosphorylated CNAα recombinant protein [3, 4] |
| --- | --- | --- | --- | --- | --- | --- | --- | --- | --- |
| B1 | no change |  |  |  |  |  |  |  |  |
| B2 |  | only able to recognize CNAα in absence of lambda phosphatase treatment | eliminated phosphospecific antibody binding | recognition | recognizes | not | does recognize | does recognize | does not recognize |

Reference: patent publication US20200256880A1, “Neuronal Assay Method Involving Calcineurin” (The Broad Institute, Inc., priority 2017, published 2020)
